Measured values reported in the supplement of paper PMC9112550, “Optimization of the antimicrobial peptide Bac7 by deep mutational scanning” (BMC Biology, 2022).

Tested on: Escherichia coli TOP10
Assay: shrunken log2 fold change of peptide-encoding DNA abundance (4.5 h post-induction vs induction); higher = less antimicrobial activity (less host growth inhibition)
Settings: time post-induction: 4.5 h; library: site-saturation at positions 5, 18, 19, 20
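Note: peptides expressed intracellularly from a pBAD plasmid library in pooled LB shake-flask culture, induced with 0.3% L-arabinose, DNA abundance read by NGS, three biological replicates, DESeq2 with apeglm shrinkage.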

Sequence: RRIRNRPPRLPRPRPRPVMFPRP
- shrunken log2 fold change: -0.0883

Sequence: RRIRFRPPRLPRPRPRPDICPRP
- shrunken log2 fold change: -0.0857

Sequence: RRIRMRPPRLPRPRPRPFDIPRP
- shrunken log2 fold change: -0.126

Sequence: RRIRKRPPRLPRPRPRPVAYPRP
- shrunken log2 fold change: -0.109

Sequence: RRIRWRPPRLPRPRPRPIQIPRP
- shrunken log2 fold change: -0.378

Sequence: RRIRKRPPRLPRPRPRPWSFPRP
- shrunken log2 fold change: 0.121

Sequence: RRIRWRPPRLPRPRPRPFCVPRP
- shrunken log2 fold change: -0.0188

Sequence: RRIRARPPRLPRPRPRPKRDPRP
- shrunken log2 fold change: 0.135

Sequence: RRIRPRPPRLPRPRPRPSYNPRP
- shrunken log2 fold change: -0.671

Sequence: RRIRHRPPRLPRPRPRPPWQPRP
- shrunken log2 fold change: -0.0158

Sequence: RRIRKRPPRLPRPRPRPIRFPRP
- shrunken log2 fold change: -0.186

Sequence: RRIRWRPPRLPRPRPRPHLHPRP
- shrunken log2 fold change: -0.043

Sequence: RRIRTRPPRLPRPRPRPIKLPRP
- shrunken log2 fold change: -0.412

Sequence: RRIRNRPPRLPRPRPRPTRLPRP
- shrunken log2 fold change: 0.2

Sequence: RRIRERPPRLPRPRPRPACTPRP
- shrunken log2 fold change: -0.224

Sequence: RRIRIRPPRLPRPRPRPDVPPRP
- shrunken log2 fold change: -0.372

Sequence: RRIRKRPPRLPRPRPRPPNNPRP
- shrunken log2 fold change: 0.364

Sequence: RRIRSRPPRLPRPRPRPQGYPRP
- shrunken log2 fold change: -0.139

Sequence: RRIRWRPPRLPRPRPRPMMYPRP
- shrunken log2 fold change: -0.339

Sequence: RRIRYRPPRLPRPRPRPRYAPRP
- shrunken log2 fold change: -0.0163

Sequence: RRIRKRPPRLPRPRPRPPLAPRP
- shrunken log2 fold change: 1.06

Sequence: RRIRPRPPRLPRPRPRPESSPRP
- shrunken log2 fold change: 1.89

Sequence: RRIRSRPPRLPRPRPRPDFGPRP
- shrunken log2 fold change: 0.0573

Sequence: RRIRWRPPRLPRPRPRPWAGPRP
- shrunken log2 fold change: 0.167

Sequence: RRIRQRPPRLPRPRPRPACHPRP
- shrunken log2 fold change: 0.105

Sequence: RRIRTRPPRLPRPRPRPEFCPRP
- shrunken log2 fold change: 0.146

Sequence: RRIRNRPPRLPRPRPRPCPLPRP
- shrunken log2 fold change: 0.011

Sequence: RRIRSRPPRLPRPRPRPYVNPRP
- shrunken log2 fold change: -0.283

Sequence: RRIRRRPPRLPRPRPRPWKMPRP
- shrunken log2 fold change: -0.00577

Sequence: RRIRARPPRLPRPRPRPVLKPRP
- shrunken log2 fold change: 0.22

Sequence: RRIRERPPRLPRPRPRPMVMPRP
- shrunken log2 fold change: -0.368

Sequence: RRIRNRPPRLPRPRPRPGRCPRP
- shrunken log2 fold change: 0.143

Sequence: RRIRERPPRLPRPRPRPKMWPRP
- shrunken log2 fold change: -0.0633

Sequence: RRIRSRPPRLPRPRPRPNATPRP
- shrunken log2 fold change: 0.551

Sequence: RRIRCRPPRLPRPRPRPGMGPRP
- shrunken log2 fold change: 0.223

Sequence: RRIRVRPPRLPRPRPRPPCTPRP
- shrunken log2 fold change: -0.159

Sequence: RRIRVRPPRLPRPRPRPDNNPRP
- shrunken log2 fold change: -0.796

Sequence: RRIRPRPPRLPRPRPRPHGHPRP
- shrunken log2 fold change: 0.0412

Sequence: RRIRPRPPRLPRPRPRPRDRPRP
- shrunken log2 fold change: 0.18

Sequence: RRIRKRPPRLPRPRPRPKIKPRP
- shrunken log2 fold change: 0.447

Sequence: RRIRERPPRLPRPRPRPTVQPRP
- shrunken log2 fold change: -0.157

Sequence: RRIRARPPRLPRPRPRPNMMPRP
- shrunken log2 fold change: -0.142

Sequence: RRIRSRPPRLPRPRPRPVYFPRP
- shrunken log2 fold change: -0.347

Sequence: RRIRTRPPRLPRPRPRPLFPPRP
- shrunken log2 fold change: -0.415

Sequence: RRIRMRPPRLPRPRPRPIAPPRP
- shrunken log2 fold change: 0.47

Sequence: RRIRDRPPRLPRPRPRPENGPRP
- shrunken log2 fold change: 0.0234

Sequence: RRIRKRPPRLPRPRPRPADTPRP
- shrunken log2 fold change: 1.03

Sequence: RRIRIRPPRLPRPRPRPMISPRP
- shrunken log2 fold change: -0.00209

Sequence: RRIRSRPPRLPRPRPRPQTSPRP
- shrunken log2 fold change: -0.157

Sequence: RRIRSRPPRLPRPRPRPCRSPRP
- shrunken log2 fold change: -0.0435

Sequence: RRIRIRPPRLPRPRPRPHWTPRP
- shrunken log2 fold change: 0.0591

Sequence: RRIRSRPPRLPRPRPRPCKKPRP
- shrunken log2 fold change: -0.121

Sequence: RRIRGRPPRLPRPRPRPQITPRP
- shrunken log2 fold change: 0.25

Sequence: RRIRCRPPRLPRPRPRPDRCPRP
- shrunken log2 fold change: 0.16

Sequence: RRIRYRPPRLPRPRPRPYLKPRP
- shrunken log2 fold change: -0.478

Sequence: RRIRKRPPRLPRPRPRPTILPRP
- shrunken log2 fold change: -0.0105

Sequence: RRIRWRPPRLPRPRPRPPDKPRP
- shrunken log2 fold change: 0.423

Sequence: RRIRERPPRLPRPRPRPRVPPRP
- shrunken log2 fold change: 0.425

Sequence: RRIRGRPPRLPRPRPRPDIHPRP
- shrunken log2 fold change: 0.439

Sequence: RRIRMRPPRLPRPRPRPIGLPRP
- shrunken log2 fold change: -0.062

Sequence: RRIRHRPPRLPRPRPRPIRSPRP
- shrunken log2 fold change: -0.0062

Sequence: RRIRDRPPRLPRPRPRPSFRPRP
- shrunken log2 fold change: -0.198

Sequence: RRIRVRPPRLPRPRPRPTMMPRP
- shrunken log2 fold change: -0.494

Sequence: RRIRIRPPRLPRPRPRPMFSPRP
- shrunken log2 fold change: -0.433

Sequence: RRIRPRPPRLPRPRPRPGDIPRP
- shrunken log2 fold change: -0.027

Sequence: RRIRRRPPRLPRPRPRPGVMPRP
- shrunken log2 fold change: 0.245

Sequence: RRIRMRPPRLPRPRPRPNYQPRP
- shrunken log2 fold change: -0.23

Sequence: RRIRSRPPRLPRPRPRPIMWPRP
- shrunken log2 fold change: -0.109

Sequence: RRIRGRPPRLPRPRPRPNNMPRP
- shrunken log2 fold change: -0.317

Sequence: RRIRQRPPRLPRPRPRPQIQPRP
- shrunken log2 fold change: -0.411

Sequence: RRIRMRPPRLPRPRPRPHAAPRP
- shrunken log2 fold change: 1.63

Sequence: RRIRIRPPRLPRPRPRPCCDPRP
- shrunken log2 fold change: -0.67

Sequence: RRIRFRPPRLPRPRPRPTRLPRP
- shrunken log2 fold change: 0.08

Sequence: RRIRRRPPRLPRPRPRPMQRPRP
- shrunken log2 fold change: 0.24

Sequence: RRIRYRPPRLPRPRPRPNSTPRP
- shrunken log2 fold change: -1.01

Sequence: RRIRHRPPRLPRPRPRPWTTPRP
- shrunken log2 fold change: 0.00489

Sequence: RRIRRRPPRLPRPRPRPIRLPRP
- shrunken log2 fold change: -0.104

Sequence: RRIRVRPPRLPRPRPRPFLNPRP
- shrunken log2 fold change: -0.148

Sequence: RRIRIRPPRLPRPRPRPWSTPRP
- shrunken log2 fold change: -0.358

Sequence: RRIRFRPPRLPRPRPRPQPWPRP
- shrunken log2 fold change: 0.334

Sequence: RRIRHRPPRLPRPRPRPAEQPRP
- shrunken log2 fold change: 0.0649

Sequence: RRIRFRPPRLPRPRPRPHSHPRP
- shrunken log2 fold change: -0.939

Sequence: RRIRWRPPRLPRPRPRPYWFPRP
- shrunken log2 fold change: -0.0484

Sequence: RRIRPRPPRLPRPRPRPQWSPRP
- shrunken log2 fold change: -0.226

Sequence: RRIRHRPPRLPRPRPRPIFEPRP
- shrunken log2 fold change: -0.0251

Sequence: RRIRNRPPRLPRPRPRPMPYPRP
- shrunken log2 fold change: 0.0291

Sequence: RRIRFRPPRLPRPRPRPMNSPRP
- shrunken log2 fold change: -0.325

Sequence: RRIRIRPPRLPRPRPRPSTVPRP
- shrunken log2 fold change: -0.566

Sequence: RRIRLRPPRLPRPRPRPGNYPRP
- shrunken log2 fold change: 0.0343

Sequence: RRIRWRPPRLPRPRPRPHCEPRP
- shrunken log2 fold change: -0.262

Sequence: RRIRMRPPRLPRPRPRPQVKPRP
- shrunken log2 fold change: -0.0452

Sequence: RRIRLRPPRLPRPRPRPHARPRP
- shrunken log2 fold change: 0.416

Sequence: RRIRWRPPRLPRPRPRPGAIPRP
- shrunken log2 fold change: -0.096

Sequence: RRIRIRPPRLPRPRPRPEDAPRP
- shrunken log2 fold change: -0.0131

Sequence: RRIRQRPPRLPRPRPRPVAGPRP
- shrunken log2 fold change: 0.0467

Sequence: RRIRIRPPRLPRPRPRPCSSPRP
- shrunken log2 fold change: 0.00235

Sequence: RRIRERPPRLPRPRPRPQTDPRP
- shrunken log2 fold change: -0.323

Sequence: RRIRPRPPRLPRPRPRPQNGPRP
- shrunken log2 fold change: -0.281

Sequence: RRIRDRPPRLPRPRPRPLHSPRP
- shrunken log2 fold change: 0.0372

Sequence: RRIRMRPPRLPRPRPRPDNMPRP
- shrunken log2 fold change: 0.0905

Sequence: RRIRHRPPRLPRPRPRPVQSPRP
- shrunken log2 fold change: 0.0377

Sequence: RRIRCRPPRLPRPRPRPDFIPRP
- shrunken log2 fold change: -0.383

Sequence: RRIRMRPPRLPRPRPRPPFEPRP
- shrunken log2 fold change: 0.492

Sequence: RRIRLRPPRLPRPRPRPDTPPRP
- shrunken log2 fold change: 0.0881

Sequence: RRIRTRPPRLPRPRPRPKDEPRP
- shrunken log2 fold change: -0.0319

Sequence: RRIRRRPPRLPRPRPRPYYCPRP
- shrunken log2 fold change: -0.132

Sequence: RRIRARPPRLPRPRPRPICTPRP
- shrunken log2 fold change: 0.197

Sequence: RRIRQRPPRLPRPRPRPCCPPRP
- shrunken log2 fold change: -0.192

Sequence: RRIRMRPPRLPRPRPRPLKQPRP
- shrunken log2 fold change: 0.513
